Laboratory results taken from article PMC11092324.

Target: CV-1A1 Fv-clasp (UniProt Q13043)
Experiment: ELISA; sandwich ELISA: CV-1A1 Fv-clasp or scFv (0.7 µM in 50 mM carbonate buffer pH 9.6) coated on high-binding microplates, VLPs added in twofold serial dilutions, 37°C 2 h, detected with rabbit anti-VLP antisera; data fit to the Michaelis-Menten equation, Km taken as Kd (affinity or avidity); concentration counted as VP1

Q: For “GI.4 Chiba virus-like particles (VP1 major capsid protein of the norovirus GI.4 Chiba strain) (complex)”, which Kd is on record?
A: 3.77 nM
